# Experimental data reported in patent publication US20210388087A1.
# Target: Human CD137 ECD (human)
# Experiment: SPR, vs parent H183/L072
# Chain of Human CD137 ECD (human) (chain, as listed by the source limits assumed): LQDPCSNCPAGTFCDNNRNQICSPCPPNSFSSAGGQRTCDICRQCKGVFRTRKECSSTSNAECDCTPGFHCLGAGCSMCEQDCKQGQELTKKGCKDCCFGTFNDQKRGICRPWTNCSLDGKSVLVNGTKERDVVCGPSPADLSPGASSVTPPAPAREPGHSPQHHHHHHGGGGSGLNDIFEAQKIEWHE
row,Binder,fold change of affinity [fold]
1,"dBBDu183H G100hS / dBBDu072L (antibody, name in Kabat numbering, V domains shown) VH: QVQLVESGGGLVQPGRSLRLSCAASGFTFSNAWMHWVRQAPGKGLEWVAQIKDKGNAYAAYYAPSVKGRFTISRDDSKNSIYLQMNSLKTEDTAVYYCHYVHYASASTVLPAFSVDAWGQGTTVTVSS VL: DIVMTQSPLSLPVTPGEPASISCQASQELVHMNRNTYLHWYQQKPGQAPRLLIYKVSNRFPGVPDRFSGSGSGTDFTLKISRVEAEDVGVYYCAQGTSVPFTFGQGTKLEIK",0
2,"dBBDu183H A98T / dBBDu072L (antibody, name in Kabat numbering, V domains shown) VH: QVQLVESGGGLVQPGRSLRLSCAASGFTFSNAWMHWVRQAPGKGLEWVAQIKDKGNAYAAYYAPSVKGRFTISRDDSKNSIYLQMNSLKTEDTAVYYCHYVHYTSASTVLPAFGVDAWGQGTTVTVSS VL: DIVMTQSPLSLPVTPGEPASISCQASQELVHMNRNTYLHWYQQKPGQAPRLLIYKVSNRFPGVPDRFSGSGSGTDFTLKISRVEAEDVGVYYCAQGTSVPFTFGQGTKLEIK",0
3,"dBBDu183H A102T / dBBDu072L (antibody, name in Kabat numbering, V domains shown) VH: QVQLVESGGGLVQPGRSLRLSCAASGFTFSNAWMHWVRQAPGKGLEWVAQIKDKGNAYAAYYAPSVKGRFTISRDDSKNSIYLQMNSLKTEDTAVYYCHYVHYASASTVLPAFGVDTWGQGTTVTVSS VL: DIVMTQSPLSLPVTPGEPASISCQASQELVHMNRNTYLHWYQQKPGQAPRLLIYKVSNRFPGVPDRFSGSGSGTDFTLKISRVEAEDVGVYYCAQGTSVPFTFGQGTKLEIK",0
4,"dBBDu183H A100T / dBBDu072L (antibody, name in Kabat numbering, V domains shown) VH: QVQLVESGGGLVQPGRSLRLSCAASGFTFSNAWMHWVRQAPGKGLEWVAQIKDKGNAYAAYYAPSVKGRFTISRDDSKNSIYLQMNSLKTEDTAVYYCHYVHYASTSTVLPAFGVDAWGQGTTVTVSS VL: DIVMTQSPLSLPVTPGEPASISCQASQELVHMNRNTYLHWYQQKPGQAPRLLIYKVSNRFPGVPDRFSGSGSGTDFTLKISRVEAEDVGVYYCAQGTSVPFTFGQGTKLEIK",0
5,"dBBDu183H A100fT / dBBDu072L (antibody, name in Kabat numbering, V domains shown) VH: QVQLVESGGGLVQPGRSLRLSCAASGFTFSNAWMHWVRQAPGKGLEWVAQIKDKGNAYAAYYAPSVKGRFTISRDDSKNSIYLQMNSLKTEDTAVYYCHYVHYASASTVLPTFGVDAWGQGTTVTVSS VL: DIVMTQSPLSLPVTPGEPASISCQASQELVHMNRNTYLHWYQQKPGQAPRLLIYKVSNRFPGVPDRFSGSGSGTDFTLKISRVEAEDVGVYYCAQGTSVPFTFGQGTKLEIK",0
6,"dBBDu183H H93D / dBBDu072L (antibody, name in Kabat numbering, V domains shown) VH: QVQLVESGGGLVQPGRSLRLSCAASGFTFSNAWMHWVRQAPGKGLEWVAQIKDKGNAYAAYYAPSVKGRFTISRDDSKNSIYLQMNSLKTEDTAVYYCDYVHYASASTVLPAFGVDAWGQGTTVTVSS VL: DIVMTQSPLSLPVTPGEPASISCQASQELVHMNRNTYLHWYQQKPGQAPRLLIYKVSNRFPGVPDRFSGSGSGTDFTLKISRVEAEDVGVYYCAQGTSVPFTFGQGTKLEIK",0
7,"dBBDu183H G100hT / dBBDu072L (antibody, name in Kabat numbering, V domains shown) VH: QVQLVESGGGLVQPGRSLRLSCAASGFTFSNAWMHWVRQAPGKGLEWVAQIKDKGNAYAAYYAPSVKGRFTISRDDSKNSIYLQMNSLKTEDTAVYYCHYVHYASASTVLPAFTVDAWGQGTTVTVSS VL: DIVMTQSPLSLPVTPGEPASISCQASQELVHMNRNTYLHWYQQKPGQAPRLLIYKVSNRFPGVPDRFSGSGSGTDFTLKISRVEAEDVGVYYCAQGTSVPFTFGQGTKLEIK",0

# Next, values leading:
row,fold change of affinity [fold],Binder
1,0,"dBBDu183H S100aT / dBBDu072L (antibody, name in Kabat numbering, V domains shown) VH: QVQLVESGGGLVQPGRSLRLSCAASGFTFSNAWMHWVRQAPGKGLEWVAQIKDKGNAYAAYYAPSVKGRFTISRDDSKNSIYLQMNSLKTEDTAVYYCHYVHYASATTVLPAFGVDAWGQGTTVTVSS VL: DIVMTQSPLSLPVTPGEPASISCQASQELVHMNRNTYLHWYQQKPGQAPRLLIYKVSNRFPGVPDRFSGSGSGTDFTLKISRVEAEDVGVYYCAQGTSVPFTFGQGTKLEIK"
2,0,"dBBDu183H V95D / dBBDu072L (antibody, name in Kabat numbering, V domains shown) VH: QVQLVESGGGLVQPGRSLRLSCAASGFTFSNAWMHWVRQAPGKGLEWVAQIKDKGNAYAAYYAPSVKGRFTISRDDSKNSIYLQMNSLKTEDTAVYYCHYDHYASASTVLPAFGVDAWGQGTTVTVSS VL: DIVMTQSPLSLPVTPGEPASISCQASQELVHMNRNTYLHWYQQKPGQAPRLLIYKVSNRFPGVPDRFSGSGSGTDFTLKISRVEAEDVGVYYCAQGTSVPFTFGQGTKLEIK"
3,0,"dBBDu183H V100iS / dBBDu072L (antibody, name in Kabat numbering, V domains shown) VH: QVQLVESGGGLVQPGRSLRLSCAASGFTFSNAWMHWVRQAPGKGLEWVAQIKDKGNAYAAYYAPSVKGRFTISRDDSKNSIYLQMNSLKTEDTAVYYCHYVHYASASTVLPAFGSDAWGQGTTVTVSS VL: DIVMTQSPLSLPVTPGEPASISCQASQELVHMNRNTYLHWYQQKPGQAPRLLIYKVSNRFPGVPDRFSGSGSGTDFTLKISRVEAEDVGVYYCAQGTSVPFTFGQGTKLEIK"
4,0,"dBBDu183H L100dT / dBBDu072L (antibody, name in Kabat numbering, V domains shown) VH: QVQLVESGGGLVQPGRSLRLSCAASGFTFSNAWMHWVRQAPGKGLEWVAQIKDKGNAYAAYYAPSVKGRFTISRDDSKNSIYLQMNSLKTEDTAVYYCHYVHYASASTVTPAFGVDAWGQGTTVTVSS VL: DIVMTQSPLSLPVTPGEPASISCQASQELVHMNRNTYLHWYQQKPGQAPRLLIYKVSNRFPGVPDRFSGSGSGTDFTLKISRVEAEDVGVYYCAQGTSVPFTFGQGTKLEIK"
5,0,"dBBDu183H V95T / dBBDu072L (antibody, name in Kabat numbering, V domains shown) VH: QVQLVESGGGLVQPGRSLRLSCAASGFTFSNAWMHWVRQAPGKGLEWVAQIKDKGNAYAAYYAPSVKGRFTISRDDSKNSIYLQMNSLKTEDTAVYYCHYTHYASASTVLPAFGVDAWGQGTTVTVSS VL: DIVMTQSPLSLPVTPGEPASISCQASQELVHMNRNTYLHWYQQKPGQAPRLLIYKVSNRFPGVPDRFSGSGSGTDFTLKISRVEAEDVGVYYCAQGTSVPFTFGQGTKLEIK"
6,0,"dBBDu183H Y97T / dBBDu072L (antibody, name in Kabat numbering, V domains shown) VH: QVQLVESGGGLVQPGRSLRLSCAASGFTFSNAWMHWVRQAPGKGLEWVAQIKDKGNAYAAYYAPSVKGRFTISRDDSKNSIYLQMNSLKTEDTAVYYCHYVHTASASTVLPAFGVDAWGQGTTVTVSS VL: DIVMTQSPLSLPVTPGEPASISCQASQELVHMNRNTYLHWYQQKPGQAPRLLIYKVSNRFPGVPDRFSGSGSGTDFTLKISRVEAEDVGVYYCAQGTSVPFTFGQGTKLEIK"
7,0,"dBBDu183H H96D / dBBDu072L (antibody, name in Kabat numbering, V domains shown) VH: QVQLVESGGGLVQPGRSLRLSCAASGFTFSNAWMHWVRQAPGKGLEWVAQIKDKGNAYAAYYAPSVKGRFTISRDDSKNSIYLQMNSLKTEDTAVYYCHYVDYASASTVLPAFGVDAWGQGTTVTVSS VL: DIVMTQSPLSLPVTPGEPASISCQASQELVHMNRNTYLHWYQQKPGQAPRLLIYKVSNRFPGVPDRFSGSGSGTDFTLKISRVEAEDVGVYYCAQGTSVPFTFGQGTKLEIK"
8,0,"dBBDu183H H93T / dBBDu072L (antibody, name in Kabat numbering, V domains shown) VH: QVQLVESGGGLVQPGRSLRLSCAASGFTFSNAWMHWVRQAPGKGLEWVAQIKDKGNAYAAYYAPSVKGRFTISRDDSKNSIYLQMNSLKTEDTAVYYCTYVHYASASTVLPAFGVDAWGQGTTVTVSS VL: DIVMTQSPLSLPVTPGEPASISCQASQELVHMNRNTYLHWYQQKPGQAPRLLIYKVSNRFPGVPDRFSGSGSGTDFTLKISRVEAEDVGVYYCAQGTSVPFTFGQGTKLEIK"
